To fix the notation:
T1: EsCas13d, nuclease-dead (Eubacterium siraeum, UniProt B0MS50, R295A;H300A;R849A;H854A)
T1 sequence: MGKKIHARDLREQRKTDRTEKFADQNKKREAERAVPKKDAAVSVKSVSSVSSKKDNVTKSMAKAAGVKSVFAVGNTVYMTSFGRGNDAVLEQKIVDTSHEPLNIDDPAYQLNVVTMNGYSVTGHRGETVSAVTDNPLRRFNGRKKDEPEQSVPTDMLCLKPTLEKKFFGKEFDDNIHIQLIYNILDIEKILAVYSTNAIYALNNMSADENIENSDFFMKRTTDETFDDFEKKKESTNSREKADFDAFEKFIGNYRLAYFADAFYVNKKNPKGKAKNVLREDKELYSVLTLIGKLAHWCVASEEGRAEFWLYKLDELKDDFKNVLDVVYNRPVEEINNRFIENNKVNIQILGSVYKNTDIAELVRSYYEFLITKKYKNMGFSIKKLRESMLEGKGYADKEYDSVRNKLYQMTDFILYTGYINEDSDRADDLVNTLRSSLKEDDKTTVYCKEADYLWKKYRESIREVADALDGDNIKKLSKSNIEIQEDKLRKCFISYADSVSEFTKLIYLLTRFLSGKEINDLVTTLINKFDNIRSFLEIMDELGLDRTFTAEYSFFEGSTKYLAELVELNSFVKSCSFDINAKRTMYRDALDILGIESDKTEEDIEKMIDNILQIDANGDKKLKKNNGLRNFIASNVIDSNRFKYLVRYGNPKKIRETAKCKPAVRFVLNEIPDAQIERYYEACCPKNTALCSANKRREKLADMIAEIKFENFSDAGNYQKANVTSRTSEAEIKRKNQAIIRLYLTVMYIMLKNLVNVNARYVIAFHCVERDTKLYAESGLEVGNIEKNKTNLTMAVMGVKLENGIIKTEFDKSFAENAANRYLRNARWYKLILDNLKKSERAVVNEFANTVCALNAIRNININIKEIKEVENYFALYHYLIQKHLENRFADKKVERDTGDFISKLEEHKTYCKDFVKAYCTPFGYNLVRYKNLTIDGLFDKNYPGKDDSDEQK

B1: target 1 insU 3' of 5,insU 3' of 1 (mixed)
RNA 1: CACCCGUGCAAAAAUGCAGGGGUCUAAAACUGAGCGGAUAACCUCUCUAUGG
RNA 2: GGGAAUGGAUCCACAUCUACGAAUUCGUACCAUAGAGAGGUUAUCCGUCUCAUCCGAGAUCGGAAGAGCACACGU
B2: target 1 G12U,A14G (mixed)
RNA 1: B1 RNA 1
RNA 2: GGGAAUGGAUCCACAUCUACGAAUUCGUACCAUAGAGGGUUUAUCCGCUCACCGAGAUCGGAAGAGCACACGU
B3: target 1 insU 3' of 18,insU 3' of 4 (mixed)
RNA 1: B1 RNA 1
RNA 2: GGGAAUGGAUCCACAUCUACGAAUUCGUACCAUAUGAGAGGUUAUCCGCUUCACCGAGAUCGGAAGAGCACACGU
B4: target 1 U8C,G17A (mixed)
RNA 1: B1 RNA 1
RNA 2: B2 RNA 2 with G35A, G38A, U40G, U44C
B5: target 1 insC 3' of 9,insG 3' of 3 (mixed)
RNA 1: B1 RNA 1
RNA 2: B1 RNA 2 with U44C, C45U, G47C, U48G, C51G, A52C, U53A
B6: target 1 insA 3' of 21,insG 3' of 21 (mixed)
RNA 1: B1 RNA 1
RNA 2: GGGAAUGGAUCCACAUCUACGAAUUCGUACCAGAUAGAGAGGUUAUCCGCUCACCGAGAUCGGAAGAGCACACGU
B7: target 1 insG 3' of 11,insA 3' of 4 (mixed)
RNA 1: B1 RNA 1
RNA 2: B3 RNA 2 with U35G, G36A, A37G, G38A, A39G, G41U, U42G, U50A
B8: target 1 U10C,U11A (mixed)
RNA 1: B1 RNA 1
RNA 2: B2 RNA 2 with G38A, U40G, U41A, U42C
B9: target 1 insU 3' of 22,insG 3' of 22 (mixed)
RNA 1: B1 RNA 1
RNA 2: B6 RNA 2 with C31U, A32G, G33C
B10: target 1 complement block 7-12 (mixed)
RNA 1: B1 RNA 1
RNA 2: B2 RNA 2 with G38A, U40C, U41A, U42A, A43U, U44A, C45G
B11: target 1 insG 3' of 9,insU 3' of 2 (mixed)
RNA 1: B1 RNA 1
RNA 2: B1 RNA 2 with U44G, C45U, G47C, U48G, A52U, U53A
B12: target 1 del7,del14 (mixed)
RNA 1: B1 RNA 1
RNA 2: GGGAAUGGAUCCACAUCUACGAAUUCGUACCAUAGAGGGUUAUCGCUCACCGAGAUCGGAAGAGCACACGU
B13: target 1 insC 3' of 18,insC 3' of 8 (mixed)
RNA 1: B1 RNA 1
RNA 2: B3 RNA 2 with U35C, G48C, C49G, U50C
B14: target 1 C6G,C22U (mixed)
RNA 1: B1 RNA 1
RNA 2: B2 RNA 2 with C30U, G38A, U40G, C46G
B15: target 1 insU 3' of 20,insC 3' of 1 (mixed)
RNA 1: B1 RNA 1
RNA 2: B3 RNA 2 with A34U, U35A, U51C, C52A, A53C
B16: target 1 insC 3' of 22,insG 3' of 7 (mixed)
RNA 1: B1 RNA 1
RNA 2: B3 RNA 2 with A32C, U33A, A34U, U35A, C47G, G48C, C49G, U50C
B17: target 1 insU 3' of 21,insC 3' of 9 (mixed)
RNA 1: B1 RNA 1
RNA 2: B3 RNA 2 with A32U, U33A, A34U, U35A, U45C, C46U, G48C, C49G, U50C
B18: target 1 insA 3' of 19,insA 3' of 15 (mixed)
RNA 1: B1 RNA 1
RNA 2: B6 RNA 2 with G33U, U35A, A36G, G37A, A38G, G39A
B19: target 1 U3A,U8C (mixed)
RNA 1: B1 RNA 1
RNA 2: B2 RNA 2 with G38A, U40G, U44C, U49A
B20: target 1 insU 3' of 6,insC 3' of 3 (mixed)
RNA 1: B1 RNA 1
RNA 2: B1 RNA 2 with G47U, U48G, A52C, U53A
B21: target 1 insC 3' of 20,insU 3' of 18 (mixed)
RNA 1: B1 RNA 1
RNA 2: B6 RNA 2 with G33C, A34U, U35A, A36U
B22: target 1 insU 3' of 12,insA 3' of 10 (mixed)
RNA 1: B1 RNA 1
RNA 2: B6 RNA 2 with G33U, U35G, A40G, G41U, G42U, U44A
B23: target 1 insG 3' of 8 (mixed)
RNA 1: B1 RNA 1
RNA 2: GGGAAUGGAUCCACAUCUACGAAUUCGUACCAUAGAGAGGUUAUGCCGCUCACCGAGAUCGGAAGAGCACACGU
B24: target 1 insA 3' of 19,insU 3' of 9 (mixed)
RNA 1: B1 RNA 1
RNA 2: B3 RNA 2 with U35A, C46U, G48C, C49G, U50C
B25: target 1 C4G,A9C (mixed)
RNA 1: B1 RNA 1
RNA 2: B2 RNA 2 with G38A, U40G, A43C, C48G
B26: target 1 insG 3' of 18,insC 3' of 15 (mixed)
RNA 1: B1 RNA 1
RNA 2: B6 RNA 2 with G33U, U35G, A36G, G37A, A38G, G39C
B27: target 1 insU 3' of 20,insU 3' of 1 (mixed)
RNA 1: B1 RNA 1
RNA 2: B3 RNA 2 with A34U, U35A, U51C, C52A, A53U
B28: target 1 insU 3' of 15,insA 3' of 11 (mixed)
RNA 1: B1 RNA 1
RNA 2: B6 RNA 2 with G33U, U35G, A38U, G39A, A40G, G42U, U43A
B29: target 1 insU 3' of 20,insG 3' of 1 (mixed)
RNA 1: B1 RNA 1
RNA 2: B3 RNA 2 with A34U, U35A, U51C, C52A, A53G
B30: target 1 G5A,U10A (mixed)
RNA 1: B1 RNA 1
RNA 2: B2 RNA 2 with G38A, U40G, U42A, G47A
B31: target 1 A9C,C22A (mixed)
RNA 1: B1 RNA 1
RNA 2: B2 RNA 2 with C30A, G38A, U40G, A43C

Changes are numbered by the printed parent chain. Names may count otherwise.

This series has as its target T1, EsCas13d, nuclease-dead. The series can be described thus: crRNA (strand 1, pre-loaded); Mg2+; 40 mM Tris-HCl pH 7.5, 150 mM NaCl, 6 mM MgCl2, 1 mM DTT, 0.1% Tween-20, 0.2 mg/ml BSA; 25 C; 10 min per concentration, then washed. The settings on record: tags: His6-TwinStrep-SUMO cleaved; N-terminal SNAP kept (SNAP-Surface 488); label: 3' end held by stalled T7 RNA polymerase.
On to B1, for which the affinity, expressed as Kd, was 13.5 ± 0.6 nM.
Regarding B2, the Kd (in general, a measure of binding affinity in units of concentration) stood at 32.7 ± 3 nM.
For B3 the value was 20.2 ± 1.3 nM; for B4, 61 ± 10 nM; for B5, 7.3 ± 0.5 nM.
For B6 the value was 40 ± 5 nM.
For B7 the value was ~63 nM; for B8, 35.7 ± 2.9 nM.
On to B9, for which the Kd came to 30.3 ± 2.5 nM.
In the case of B10, binding was characterised by a dissociation constant (Kd) of 16.6 ± 0.7 nM.
To B11 belongs 18.9 ± 1.2 nM.
Molecule B12 returned a Kd of 18 ± 0.6 nM.
For B13, the dissociation constant (Kd) was determined as 44.9 ± 3 nM.
To B14 belongs 14 ± 1.1 nM; to B15, 10.1 ± 1 nM; to B16, 16.2 ± 3 nM.
For B17 the value was 40.1 ± 2.9 nM.
To B18 belongs 16.4 ± 1.8 nM.
With B19, binding was put at a Kd of 7.6 ± 0.7 nM.
For B20 the value was 10.5 ± 0.7 nM; for B21, 6.12 ± 0.3 nM; for B22, 10.3 ± 0.4 nM.
To B23 belongs 12.9 ± 0.5 nM; to B24, 32.5 ± 3.1 nM.
In the case of B25, the equilibrium dissociation constant (Kd) amounted to 7.2 ± 0.7 nM.
For B26 the value was 62 ± 11 nM; for B27, 14.1 ± 1.4 nM.
For B28 the value was 27.8 ± 1.7 nM; for B29, 11.8 ± 1.2 nM; for B30, 84 ± 16 nM.
To B31 belongs 47 ± 9 nM.

The record behind these values is PMC10786891, “Massively parallel profiling of RNA-targeting CRISPR-Cas13d”.
